The text below walks through data of article PMC5829826.

Residue numbers refer to the chain shown, from its start.

Holding throughout (assay): EMSA
Common to all, as to conditions: 60 mM HEPES-KOH pH 7.5, 25 mM MgCl2, 5 mM EDTA, 300 mM KCl, 50 µg/ml BSA, 3 mM DTT, 24 ng labeled DNA, 20 min, room temperature
For orientation: A gel shift assay detects complexes by their altered migration in electrophoresis.

Series [1] concerns the target T1, Cra Y47E Y47E (Escherichia coli EHEC TUV93-0) (UniProt P0ACP1).
T1 sequence: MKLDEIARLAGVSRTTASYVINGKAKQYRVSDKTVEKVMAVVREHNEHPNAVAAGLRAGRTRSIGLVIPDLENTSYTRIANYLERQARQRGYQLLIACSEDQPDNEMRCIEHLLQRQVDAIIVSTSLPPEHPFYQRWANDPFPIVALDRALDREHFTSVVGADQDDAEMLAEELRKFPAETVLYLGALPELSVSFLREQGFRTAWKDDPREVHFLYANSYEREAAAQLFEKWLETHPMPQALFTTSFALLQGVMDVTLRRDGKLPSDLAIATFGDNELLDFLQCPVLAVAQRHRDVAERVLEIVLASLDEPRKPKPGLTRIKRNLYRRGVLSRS

For series [2], the target named is T2, Cra WT (Escherichia coli EHEC TUV93-0) (UniProt P0ACP1).
T2 sequence: T1 sequence with E47Y

Series [3] concerns the target T3, Cra Y47F Y47F (Escherichia coli EHEC TUV93-0) (UniProt P0ACP1).
T3 sequence: T1 sequence with E47F

The target in series [4] is T4, PurR Y45E Y45E (Escherichia coli (TUV93-0?)) (UniProt P0ACP7).
T4 sequence: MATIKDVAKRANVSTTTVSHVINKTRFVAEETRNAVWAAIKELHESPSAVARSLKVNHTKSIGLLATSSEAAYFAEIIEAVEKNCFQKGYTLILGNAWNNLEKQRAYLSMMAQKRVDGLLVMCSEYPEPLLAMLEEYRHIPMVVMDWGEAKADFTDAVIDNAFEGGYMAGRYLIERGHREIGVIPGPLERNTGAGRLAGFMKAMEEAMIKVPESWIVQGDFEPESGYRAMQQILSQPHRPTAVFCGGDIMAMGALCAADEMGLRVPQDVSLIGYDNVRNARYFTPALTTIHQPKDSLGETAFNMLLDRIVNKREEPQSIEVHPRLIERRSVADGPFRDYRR

Series [5] deals with T5, PurR WT (Escherichia coli (TUV93-0?)) (UniProt P0ACP7).
T5 sequence: T4 sequence with E45Y

Series [6] deals with T6, PurR Y45F Y45F (Escherichia coli (TUV93-0?)) (UniProt P0ACP7).
T6 sequence: T4 sequence with E45F

In series [7] the test system is LacI Y47F Y47F, ORF:a00089fe.
The subject of another series is LacI WT, ORF:a00089fe.
For series [8], the system named is LacI Y47E Y47E, ORF:a00089fe.
Series [9] concerns Cra WT (Escherichia coli EHEC TUV93-0).
In series [10] the test system is Cra Y47F (Escherichia coli EHEC TUV93-0).

Regarding “CACCTCCTAACTACTTAAAATTGCTATCATTCGTTATTGTTATCTAGTTGTGCAAAACATGCTAATGTAGCCACCAAATCATACTACAATTTATTAACTGTTATCTATAATGGCGAAAAGCGATGCTGAAAGGTGTCAGCTTTGCAAAAATTTGATTTGGATCACGTAATCAGTACCCAGAAGTGAGTAATCTTGCTTACGCCACTTGGAAGTGACGCATTAGAGATAATAACTCTAATGTTTAAACTCTTTTAGTAAATCACAGTGAGTGTGTGCGC (double strand) [adhE regulatory fragment]”, the binding entry is reported as “no binding” in [1], “binds” in series [2] and “binds” in [3].

Take “CGTAATCAATCCAGACCATATGTGTCCCACGATTTTACGCCCTGTCATCCTGTTCGGGGGCGCATTCTAACAGAAAAAGAAAACGTTTGCGTAGGGATTTCCTTCCCGCGCATCAATAAAAATGGCGCTGAAAAAATATTCAACGCCATCGACTTTTTATGCCTTTGCGGCATCGGACAATGCGTGTCGGATGCGGCGTAAACGTCTTATCCGACCTACGGTTCTACC (double strand) [purF-cvpA regulatory fragment]”: the binding result in series [4] is recorded as “no binding”; in series [5], “binds”; in series [6], “binds”.

By Kd is commonly meant the free concentration of one partner at which half of the binding sites on the other are occupied at equilibrium, for simple one-to-one binding. With “CATGTGCTGCGACTGCGTTCGCTTACCCCAATCACTTACTTATGTAAGCTCCTGGGGATTCACTCGCTTGCCGCCTTCCTGTAACTCGAATTAAGTAGAGTATAGTGAAACGGTTCAGCTTGGTTTTTATTCTGTTTTATTTGTTTATGCAATGAGATCTATCTTATAAAGAGAAACGCTTAACTAAATGGAAATGC (double strand) [LEE1 (ler) regulatory fragment]”, the binding result in series [1] is reported as “no binding”; in [2], “binds”; in series [3] it was “binds”. Also, the Kd in series [2] is 111 nM; in series [3] it was 130 nM.

In the case of “CGACGGCCAGTGAATCTGTAATCATAGTCATAGCTGTATCCTGTGTGAAATTGTTATCCGCTCACAATTTCACACAACATACGAGCCGGACGCATAGAGTGTAAAGCGTGGGGTGCCTAATGAGTGAGCTGACTCACATTAATTGCGTTGCGCTCACTGCCCGCTTTCCAGTCGGGAAACTTGTCGTGCCAGCTGCATTAATGAATCG (double strand) [lacO1O3 fragment]”, the binding entry is given as “binds” in [7]; “binds” in the series with LacI WT, ORF:a00089fe; “no binding” in series [8].

Take LEE1 (ler) regulatory fragment: in series [9], the Kd is 111 nM and the binding signal (% reduction of binding vs no metabolite) was 33. Also, in series [10], the Kd is 130 nM and the binding signal (% reduction of binding vs no metabolite) came out at 33.

Take “TTTACGGCTTTCCTTGCGTGCTGAAACAGAAGTATTATGCTTTCTTGAAACGTTTCAGCGCGATCTTGTCTTTAACCCTAAGCCAGGTTGGCGCTTTTTTTCTCATAGAAGCTGAATCGTTTCAATTCAGCAAGAGAGGAGAACTATGTTCCAGTTATCCGTACAGGACATCCATCCGGGCGAAAAGGCCGGAGACAAAGAAGAGGCGATTCGCCAGGTCGCTGCGGCGCTGGTGCAGGCCGGTAATGTAGCAGAAGGCTACGTCAATGGCATGCTG (double strand) [fruB regulatory fragment]”: the binding entry is reported as “no binding” in [1], “binds” in series [2] and “binds” in [3].
